Laboratory results: patent US20180214514A1 (GEORGETOWN UNIVERSITY, published 2018)

B1: human recombinant FGFR1 Fc chimera (Fc fusion, UniProt P11362 22-376, looked up)
chain: RPSPTLPEQAQPWGAPVEVESFLVHPGDLLQLRCRLRDDVQSINWLRDGVQLAESNRTRITGEEVEVQDSVPADSGLYACVTSSPSGSDTTYFSVNVSDALPSSEDDDDDDDSSSEEKETDNTKPNRMPVAPYWTSPEKMEKKLHAVPAAKTVKFKCPSSGTPNPTLRWLKNGKEFKPDHRIGGYKVRYATWSIIMDSVVPSDKGNYTCIVENEYGSINHTYQLDVVERSPHRPILQAGLPANKTVALGSNVEFMCKVYSDPQPHIQWLKHIEVNGSKIGPDNLPYVQILKTAGVNTTDKEMEVLHLRNVSFEDAGEYTCLAGNSIGLSHHSAWLTVLEALEERPAVMTSPLYLE
notes: It was immobilized on a CM-5 SPR chip; not shown: Fc part of the chimera
B2: MBP-tagged C66 fusion protein (C-terminal 66-amino acid FGF-binding domain of human BP3) (other, not shown: large carriers)
chain: APPKENPSERKTNEGKRKAALVPNEERPMGTGPDPDGLDGNAELTETYCAEKWHSLCNFFVNFWNG
notes: MBP fusion with an apparent molecular mass of 52 kDa; also called C66 fragment; C-terminal hBP3 region

Legend:
[1] = target: T1, MBP-tagged recombinant human FGFBP3 (MBP-BP3) (human, UniProt P0AEX9 27-392 = MBP, limits assumed); test: SPR, BP3 over immobilized FGFR1 Fc chimera (FIG. 6B)
T1 construct: Bacterially expressed MBP fusion; The order MBP then BP3 follows the pMAL-p2X vector design; also called hBP3
Method: (§1) Biacore T200 instrument (GE Healthcare) was used for surface plasmon resonance measurements. Human recombinant FGFR4 or FGFR1 Fc chimera in HBS-P buffer (0.01 M HEPES pH 7.4, 0.15 M NaCl, 0.05% P-20) were immobilized on a flow cell of a CM-5 sensor chip (GE Healthcare, Piscataway, N.J.) via amine coupling. A blank flow cell was used as a negative control for non-specific binding to the sensor surface. […] Dissociation constants were calculated from the association and dissociation rates of the proteins after washing. The experiments were performed in triplicate.

[2] = target: T2, human recombinant FGF19 (human, UniProt O95750 25-216); test: SPR, C66 over immobilized FGF19 (FIG. 7B)
T2 construct: Bought recombinant protein; also called fibroblast growth factor 19
T2 sequence (O95750 25-216 limits assumed): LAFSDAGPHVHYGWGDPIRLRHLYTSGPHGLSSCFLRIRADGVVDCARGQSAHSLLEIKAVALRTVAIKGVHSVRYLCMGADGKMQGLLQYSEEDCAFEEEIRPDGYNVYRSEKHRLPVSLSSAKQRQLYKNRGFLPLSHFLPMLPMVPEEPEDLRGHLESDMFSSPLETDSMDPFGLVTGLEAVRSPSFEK

[3] = target: T3, human recombinant FGFR4 Fc Chimera (human, UniProt P22455 22-369); test: SPR, C66 over immobilized FGFR4 (FIG. 7B)
T3 construct: Bought reagent; It was immobilized on ELISA plates and on a CM-5 SPR chip; also called FGF Receptor 4; fibroblast growth factor receptor 4; Fc part of the bought chimera not given
Method: as §1

[4] = target: B1; test: SPR, equilibrium binding to immobilized FGFR1 Fc chimera (FIG. 7C)
Method: as §1

Binder	binding result [1]	binding result [2]	binding result [3]	binding result [4]
B1	no binding (tested: 4, 2, or 1 nM)			
B2		binds	no binding (tested: 245 nM)	no binding (tested: 245 nM)
